In patent US20100036106, “High-Affinity RNA Aptamer Molecule Against Glutathione-S-Transferase Protein” (NEC Soft, Ltd., published 2010):

Biological target: Glutathione S-transferase (GST) (Schistosoma japonicum, UniProt P08515 P08515:2-218)
Assay: SPR; Kd fitted with BIA Evolution 3.1 but value only in figure; RNA immobilized via poly(A)/poly(dT)
Details: chain copies: 2 inferred
Description: Synthetic biotinylated polydT (Hokkaido System Science) is allowed to bind to the surface of an SA BIACORE chip (Biacore). The single-stranded RNA molecules (RNA adaptor molecules) comprising polyA (Aₙ) added on the 5′-terminal side are annealed with the synthetic biotinylated polydT immobilized on the chip surface. As a result, the single-stranded RNA molecules (RNA adaptor molecules) are immobilized thereon via the hybrid bonding between the polydT and the polyA (Aₙ).
This chip on which the single-stranded RNA molecules (RNA adaptor molecules) are immobilized is utilized to measure the process of formation of complexes of the single-stranded RNA molecules (RNA adaptor molecules) and GST proteins and the process of dissociation thereof by use of a surface plasmon resonance detection apparatus. The results are analyzed to determine the equilibrium dissociation constants of the complexes.
Parameter fitting is conducted by use of BIA Evolution ver. 3.1 for the concentrations of the GST protein in the poured GST protein solutions and the time-dependent changes in signal intensity measured in this process, to thereby determine equilibrium dissociation constant KD.

Sequence of Glutathione S-transferase (GST) (P08515 2-218, one chain of several): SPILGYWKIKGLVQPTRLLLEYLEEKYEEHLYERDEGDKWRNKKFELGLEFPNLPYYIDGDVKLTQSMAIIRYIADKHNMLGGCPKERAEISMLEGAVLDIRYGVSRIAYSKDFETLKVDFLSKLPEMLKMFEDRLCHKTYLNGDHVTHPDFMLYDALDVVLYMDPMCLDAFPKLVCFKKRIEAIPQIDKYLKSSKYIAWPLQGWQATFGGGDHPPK

Binder	binding result
No. 26 clone RNA aptamer with 5' poly(A) (ssRNA) RNA: GGUAGAUACGAUGGAUACCGAAAAAUUAGUGUCGUUGACUGCAACAUGACGCGCAGCCAA	binds
No. 3 clone RNA aptamer with 5' poly(A) (ssRNA) RNA: GGUAGAUACGAUGGAUGGUUGUGUAAAGGUGGUCGUAUCCGCCGACAUGACGCGCAGCCAA	binds
No. 5 clone RNA aptamer with 5' poly(A) (ssRNA) RNA: GGUAGAUACGAUGGACUAACUGCGCAAAUUACUCGUAUUAGCCGACAUGACGCGCAGCCAA	binds
